Experimental findings from patent publication US20220177581A1 (Memorial Sloan Kettering, published 2022) are described below.

The assay concerns the target T1, CD22 (UniProtKB-P20273) on CD22(+) cells (human, UniProt P20273 20-847).
T1 construct: Endogenous CD22 on the NALM6 and Raji cell lines; also called SIGLEC-2; BL-CAM
T1 sequence: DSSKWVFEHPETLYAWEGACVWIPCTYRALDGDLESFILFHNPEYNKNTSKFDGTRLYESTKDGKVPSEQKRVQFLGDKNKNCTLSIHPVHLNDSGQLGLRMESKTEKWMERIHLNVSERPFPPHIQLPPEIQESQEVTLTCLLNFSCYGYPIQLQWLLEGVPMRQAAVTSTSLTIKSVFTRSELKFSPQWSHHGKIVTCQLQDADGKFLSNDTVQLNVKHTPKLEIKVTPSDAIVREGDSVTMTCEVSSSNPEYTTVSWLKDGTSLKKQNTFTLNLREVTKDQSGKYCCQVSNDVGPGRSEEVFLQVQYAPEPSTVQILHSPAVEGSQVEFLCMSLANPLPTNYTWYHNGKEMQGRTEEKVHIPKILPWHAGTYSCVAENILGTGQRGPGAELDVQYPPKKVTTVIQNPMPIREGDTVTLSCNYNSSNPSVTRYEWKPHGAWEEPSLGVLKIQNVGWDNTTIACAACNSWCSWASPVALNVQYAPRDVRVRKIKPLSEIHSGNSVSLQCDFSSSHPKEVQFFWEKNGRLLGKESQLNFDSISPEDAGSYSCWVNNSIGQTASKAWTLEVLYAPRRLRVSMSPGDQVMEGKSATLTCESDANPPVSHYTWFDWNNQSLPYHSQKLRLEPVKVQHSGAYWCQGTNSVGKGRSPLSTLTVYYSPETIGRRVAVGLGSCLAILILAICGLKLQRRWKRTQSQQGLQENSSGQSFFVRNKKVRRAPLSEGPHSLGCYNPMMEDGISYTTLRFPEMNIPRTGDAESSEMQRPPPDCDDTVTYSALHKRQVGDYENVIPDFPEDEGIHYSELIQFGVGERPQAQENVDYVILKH
Briefly: flow cytometry (FACS) on CD22(+) NALM6 cells, detected with an anti-human Fc second antibody. Here is the method: The binding of bispecific CD22-CD3 IgG-scFv antibodies to NALM6 CD22(+) leukemic cells was assayed using FACS. CD22(−) MOLM13 AML cells were used as a negative control for CD22 expression, and anti-CD3 humanized OKT3 (huOKT3) was used as a negative antibody control. […] In contrast, neither the chimeric LL2 IgG+huOKT3 scFv nor the huOKT3 antibody stained the CD22(−) MOLM13 AML cells.
For orientation: In flow cytometry, cells or beads pass a laser one at a time.

B1: chimeric anti-CD22-CD3 BsAb (chLL2 x CD3 BsAb) (bispecific antibody)
heavy: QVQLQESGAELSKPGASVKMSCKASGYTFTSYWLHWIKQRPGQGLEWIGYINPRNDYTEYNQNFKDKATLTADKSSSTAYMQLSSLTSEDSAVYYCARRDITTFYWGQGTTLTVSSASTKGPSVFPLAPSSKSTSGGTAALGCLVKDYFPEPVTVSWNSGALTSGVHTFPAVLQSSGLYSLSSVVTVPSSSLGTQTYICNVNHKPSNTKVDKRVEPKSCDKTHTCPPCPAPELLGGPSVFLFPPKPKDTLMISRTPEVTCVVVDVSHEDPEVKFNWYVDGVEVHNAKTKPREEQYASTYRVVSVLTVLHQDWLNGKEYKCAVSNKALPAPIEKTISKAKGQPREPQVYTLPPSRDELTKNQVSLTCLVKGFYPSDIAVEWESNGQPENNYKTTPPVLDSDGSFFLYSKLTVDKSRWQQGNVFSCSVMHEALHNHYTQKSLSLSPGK
light: DIQLTQSPSSLAVSAGENVTMSCKSSQSVLYSANHKNYLAWYQQKPGQSPKLLIYWASTRESGVPDRFTGSGSGTDFTLTISRVQVEDLAIYYCHQYLSSWTFGGGTKLEIKRTVAAPSVFIFPPSDEQLKSGTASVVCLLNNFYPREAKVQWKVDNALQSGNSQESVTEQDSKDSTYSLSSTLTLSKADYEKHKVYACEVTHQGLSSPVTKSFNRGECTSGGGGSGGGGSGGGGSQVQLVQSGGGVVQPGRSLRLSCKASGYTFTRYTMHWVRQAPGKCLEWIGYINPSRGYTNYNQKFKDRFTISRDNSKNTAFLQMDSLRPEDTGVYFCARYYDDHYSLDYWGQGTPVTVSSGGGGSGGGGSGGGGSGGGGSGGGGSGGGGSDIQMTQSPSSLSASVGDRVTITCSASSSVSYMNWYQQTPGKAPKRWIYDTSKLASGVPSRFSGSGSGTDYTFTISSLQPEDIATYYCQQWSSNPFTFGCGTKLQITR
notes: IgG-scFv format: huOKT3 scFv fused to the C-terminus of the LL2 IgG1 light chain; also called chimeric LL2 IgG+huOKT3 scFv
Regarding B1, the binding result is on record as “binds”.
